From patent publication US20080103086A1, “METHODS FOR THE TREATMENT OF DISEASES ASSOCIATED WITH THE SECRETION OF HMGB1” (priority 2006, published 2008)
Each block holds one molecule with its values, some of them ahead of it.

Tests used:
[1] = test system: HMGB1 secretion; assay: Inhibition of HMGB1 secretion by Protein Kinase C inhibitor in LPS-treated RAW 264.7 cells (Western blot of supernatants); type: cell-based, Murine; conditions: 200 ng/mL LPS combined with inhibitor, 16 h, Go 6983 0.1 to 10 μM
Method: RAW 264.7 cells were treated with 200 ng/mL of LPS alone or combined with Gö 6983 (PKC inhibitor) at the indicated concentrations (μM) for 16 h. SB203580 (p38 inhibitor), PD098059 (ERK1/2 inhibitor), Bay 11-7082 (NF-κB inhibitor) were used for comparison. The supernatants were harvested and separated with 12% SDS-PAGE and Western blot was performed to observe the level of HMGB1.
To analyze the secretion of HMGB1 in the supernatants, culture media were replaced with serum-free OPTI-MEM (Gibco BRL) medium and concentrated with Amicon Centricon filtration (Millipore) after removing cell debris, and Western blot analysis was performed. The cytoplasmic and nuclear fractions from 5×10^6 cells were separated using a digitonin-based method (Bird, C. H. et al, Mol Cell Biol 21:5396-5407 (2001)) to observe the levels of HMGB1 in each fraction. The cells were lysed using 1% Nonidet P-40 buffer containing a protease inhibitor cocktail (Sigma), and the protein concentrations were measured by Bradford assay (Biorad) for the analysis of whole cell lysates (WCLs). The protein samples underwent 12% SDS-PAGE and were transferred to a nitrocellulose membrane. Western blot analysis was performed using rabbit anti-HMGB1 (BD Pharmingen) and HRP-labeled goat anti-rabbit Ig as primary and secondary antibodies, respectively.
To observe the inhibition of HMGB1 secretion by PKC inhibitor, RAW 264.7 cells were treated with 200 ng/mL of LPS alone or combined with Gö 6983 (Calbiochem), a conventional PKC (α, β, and γ) inhibitor including PKCδ and PKCζ, at the indicated concentrations for 16 h. Other inhibitors of SB203580 (p38 inhibitor, Calbiochem), PD098059 (ERK1/2 inhibitor, Calbiochem), Bay 11-7082 (NF-κB inhibitor, Calbiochem) were included. The supernatants were harvested and separated with 12% SDS-PAGE and Western blot was performed to observe the level of HMGB1.

[2] = molecular target: six His-tagged wild type HMGB1 (UniProt P09429)
[3] = molecular target: six His-tagged HMGB1 NLS1/2A, not tagged with GFP (UniProt P09429)
[4] = molecular target: T1, GST-KAP-α1 fusion protein (human, UniProt P52294 1-538); assay: GST pull-down with GST-KAP-α1 on glutathione-Sepharose beads, anti-His blot
T1 construct: Produced in E. coli BL21, immobilized on glutathione-Sepharose 4B beads; the primers start at the ATG of the coding region; not shown: glutathione S-transferase (GST) tag encoded by vector pGEX-4T-1 (Pharmacia)
Method: Direct binding of recombinant HMGB1 protein to KAP-α1 was tested to exclude the possibility that other HMGB1-interacting proteins present in cell lysates could have a role in binding. Purified six His-tagged wild type HMGB1 protein and boxes A (aa 1-87) and B (aa 88-162) proteins, which were identified at expected size by Coomassie blue staining (FIG. 4B, left), were purified from E. coli BL21. Same molar amounts of all wild and truncated forms of HMGB1 were added to GST-KAP-α1, and GST pull-down assay was performed.

[5] = molecular target: T2, Flag-tagged KAP-α1 (human, UniProt P52294 1-538); assay: co-immunoprecipitation from co-transfected RAW 264.7 cells, Western blot (summed up in Example 7)
T2 construct: Expressed in co-transfected RAW 264.7 cells; used in co-immunoprecipitation; also called FLAG-KAP-α1; not shown: Flag tag of vector pCMV-Tag2 (Stratagene)
Method: (§1) To observe the binding of KAP protein to each mutant HMGB1 in the cells, Flag-tagged KAP-α1 and each mutant HMGB1-GFP plasmid were co-transfected into RAW 264.7 cells. Cell homogenates of transfected RAW 264.7 cells were harvested and incubated with mouse anti-Flag (M2, Sigma) and mouse anti-GFP (Santa Cruz) at 4° C. overnight. Immune complexes were collected and the membranes were blotted with anti-Flag and anti-GFP, respectively. The reciprocal experiment was also performed. GST was used as a negative control. And to test the direct binding of HMGB1 to KAP-α1, GST pull-down assay was performed as described above.
(§2) To observe the effect of phosphorylation in both NLS regions of HMGB1 on the binding to KAP-α1 and on the subcellular localization of HMGB1 in the transfected cells, a number of site-directed mutations in six serines of NLS1 and NLS2 were generated using a HMGB1-GFP fusion construct plasmid (FIG. 5A). Serines 35, 39, 42, 46, 53 within or close to NLS1 and serine 181 at NLS2 were alternatively or totally mutated into alanine or glutamic acid. Substitution with alanine and glutamic acid simulated unphosphorylated and a phosphorylated states, respectively. RAW 264.7 cells were co-transfected with a Flag-tagged KAP-α1 plasmid and each mutant HMGB1-GFP plasmid, and immunoprecipitates using anti-GFP (FIG. 5B) or anti-Flag (FIG. 5C) were analyzed with anti-Flag for KAP-α1 or anti-GFP for HMGB1.

[6] = molecular target: T2, Flag-tagged KAP-α1; assay: co-immunoprecipitation from co-transfected RAW 264.7 cells (anti-GFP and anti-Flag), Western blot
Method: as §1, §2

Molecule: Cc1ccc(S(=O)(=O)/C=C/C#N)cc1 [Bay 11-7082]
levels of HMGB1 in the culture supernatants (HMGB1 secretion) [1]: decreased in a concentration-dependent manner

Molecule: COc1ccc2c(c1)c(C1=C(c3c[nH]c4ccccc34)C(=O)NC1=O)cn2CCCN(C)C [Go 6983, 2-[1-(3-dimethylaminopropyl)-5-methoxyindol-3-yl]-3-(1H-indol-3-yl) Maleimide]
levels of HMGB1 in the culture supernatants (HMGB1 secretion) [1]: decreased to undetectable level | levels of HMGB1 in the culture supernatants (HMGB1 secretion) ([1]; listed as Go6983): the secretion of HMGB1 was inhibited

Molecule: COc1cccc(-c2cc(=O)c3ccccc3o2)c1N [PD098059]
levels of HMGB1 in the culture supernatants (HMGB1 secretion) [1]: no change of HMGB1 secretion

Molecule: C[S+]([O-])c1ccc(-c2nc(-c3ccncc3)c(-c3ccc(F)cc3)[nH]2)cc1 (stereo not shown) [SB203580]
levels of HMGB1 in the culture supernatants (HMGB1 secretion) [1]: no change of HMGB1 secretion

Molecule: Cdc2 kinase (New England BioLabs)
in vitro protein kinase assay ([γ-32P]ATP, autoradiography) [2]: CK II and cdc2 showed no phosphorylation of HMGB1

Molecule: casein kinase II (CK II) (New England BioLabs)
in vitro protein kinase assay ([γ-32P]ATP, autoradiography) [2]: CK II and cdc2 showed no phosphorylation of HMGB1

Molecule: protein kinase C (PKC) protein (Upstate)
in vitro protein kinase assay ([γ-32P]ATP, autoradiography) [2]: PKC phosphorylated WT HMGB1 | in vitro protein kinase assay ([γ-32P]ATP, autoradiography) [3]: showed little or no phosphorylation compared to the WT HMGB1

binding result [4]: no binding
B1: six His-tagged HMGB1 box A (aa 1-87) (other, human, UniProt P09429 1-87, looked up)
chain: MGKGDPKKPRGKMSSYAFFVQTCREEHKKKHPDASVNFSEFSKKCSERWKTMSAKEKGKFEDMAKADKARYEREMKTYIPPKGETKK
notes: range 1-87; Includes NLS1 (aa 28-44); Purified from E. coli BL21; also called boxes A (aa 1-87); not shown: 6×His tag and vector-encoded residues of pRSETB (Invitrogen)

binding result [4]: no binding
B2: six His-tagged HMGB1 box B (aa 88-162) (other, human, UniProt P09429 88-162, looked up, not shown: small tags and cut ends)
chain: KFKDPNAPKRPPSAFFLFCSEYRPKIKGEHPGLSIGDVAKKLGEMWNNTAADDKQPYEKKAAKLKEKYEKDIAAY
notes: range 88-162

interaction relative to wild-type [5]: ≥ 50 % of wild-type
B3: HMGB1 NLS1/2A (HMGB1-GFP mutant) (other, human, UniProt P09429 1-215, looked up)
chain: MGKGDPKKPRGKMSSYAFFVQTCREEHKKKHPDAAVNFAEFAKKCAERWKTMAAKEKGKFEDMAKADKARYEREMKTYIPPKGETKKKFKDPNAPKRPPSAFFLFCSEYRPKIKGEHPGLSIGDVAKKLGEMWNNTAADDKQPYEKKAAKLKEKYEKDIAAYRAKGKPDAAKKGVVKAEKAKKKKEEEEDEEDEEDEEEEEDEEDEDEEEDDDDE
notes: not shown: EGFP of pEGFP-N1 and linker

binding result [6]: no binding
B4: HMGB1 NLS1/2E (HMGB1-GFP mutant) (other, human, UniProt P09429 1-215, looked up)
chain: MGKGDPKKPRGKMSSYAFFVQTCREEHKKKHPDAEVNFEEFEKKCEERWKTMEAKEKGKFEDMAKADKARYEREMKTYIPPKGETKKKFKDPNAPKRPPSAFFLFCSEYRPKIKGEHPGLSIGDVAKKLGEMWNNTAADDKQPYEKKAAKLKEKYEKDIAAYRAKGKPDAAKKGVVKAEKEKKKKEEEEDEEDEEDEEEEEDEEDEDEEEDDDDE
notes: as for B3

interaction relative to wild-type [5]: ≥ 50 % of wild-type | interaction relative to wild-type [6]: ~50 % of wild-type
B5: HMGB1 NLS2E (HMGB1-GFP mutant) (other, human, UniProt P09429 1-215, looked up)
chain: MGKGDPKKPRGKMSSYAFFVQTCREEHKKKHPDASVNFSEFSKKCSERWKTMSAKEKGKFEDMAKADKARYEREMKTYIPPKGETKKKFKDPNAPKRPPSAFFLFCSEYRPKIKGEHPGLSIGDVAKKLGEMWNNTAADDKQPYEKKAAKLKEKYEKDIAAYRAKGKPDAAKKGVVKAEKEKKKKEEEEDEEDEEDEEEEEDEEDEDEEEDDDDE
notes: as for B3

interaction relative to wild-type [5]: ≥ 50 % of wild-type | interaction relative to wild-type [6]: ~50 % of wild-type
B6: HMGB1 NLS1E (HMGB1-GFP mutant) (other, human, UniProt P09429 1-215, looked up)
chain: MGKGDPKKPRGKMSSYAFFVQTCREEHKKKHPDAEVNFEEFEKKCEERWKTMEAKEKGKFEDMAKADKARYEREMKTYIPPKGETKKKFKDPNAPKRPPSAFFLFCSEYRPKIKGEHPGLSIGDVAKKLGEMWNNTAADDKQPYEKKAAKLKEKYEKDIAAYRAKGKPDAAKKGVVKAEKSKKKKEEEEDEEDEEDEEEEEDEEDEDEEEDDDDE
notes: as for B3

interaction relative to wild-type [5]: ≥ 50 % of wild-type
B7: HMGB1 NLS1A (HMGB1-GFP mutant) (other, human, UniProt P09429 1-215, looked up)
chain: MGKGDPKKPRGKMSSYAFFVQTCREEHKKKHPDAAVNFAEFAKKCAERWKTMAAKEKGKFEDMAKADKARYEREMKTYIPPKGETKKKFKDPNAPKRPPSAFFLFCSEYRPKIKGEHPGLSIGDVAKKLGEMWNNTAADDKQPYEKKAAKLKEKYEKDIAAYRAKGKPDAAKKGVVKAEKSKKKKEEEEDEEDEEDEEEEEDEEDEDEEEDDDDE
notes: as for B3

interaction relative to wild-type [5]: ≥ 50 % of wild-type
B8: HMGB1 NLS2A (HMGB1-GFP mutant) (other, human, UniProt P09429 1-215, looked up)
chain: MGKGDPKKPRGKMSSYAFFVQTCREEHKKKHPDASVNFSEFSKKCSERWKTMSAKEKGKFEDMAKADKARYEREMKTYIPPKGETKKKFKDPNAPKRPPSAFFLFCSEYRPKIKGEHPGLSIGDVAKKLGEMWNNTAADDKQPYEKKAAKLKEKYEKDIAAYRAKGKPDAAKKGVVKAEKAKKKKEEEEDEEDEEDEEEEEDEEDEDEEEDDDDE
notes: as for B3
